In patent publication US20240383982A1 (Genmab, published 2024):

Key:
[1] = target: T1, B7H3; assay: flow cytometry, transiently transfected HEK cells, MFI as % of IgG1-B7H3-BRCA84D
T1 construct: also called human B7H3
T1 full-length protein on cells: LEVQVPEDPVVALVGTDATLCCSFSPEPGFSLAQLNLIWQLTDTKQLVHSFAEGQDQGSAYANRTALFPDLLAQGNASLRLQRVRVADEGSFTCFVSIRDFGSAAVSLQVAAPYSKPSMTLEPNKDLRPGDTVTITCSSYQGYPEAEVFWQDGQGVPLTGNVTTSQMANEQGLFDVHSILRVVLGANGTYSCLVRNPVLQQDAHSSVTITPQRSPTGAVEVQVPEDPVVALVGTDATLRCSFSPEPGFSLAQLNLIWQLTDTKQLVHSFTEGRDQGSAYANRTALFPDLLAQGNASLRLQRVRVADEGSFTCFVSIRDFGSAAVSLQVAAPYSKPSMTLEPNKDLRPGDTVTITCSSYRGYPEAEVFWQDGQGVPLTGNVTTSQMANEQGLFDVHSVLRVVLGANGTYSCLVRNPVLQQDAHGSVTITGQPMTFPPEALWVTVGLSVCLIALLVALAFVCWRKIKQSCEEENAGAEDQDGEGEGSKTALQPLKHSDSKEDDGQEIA
Protocol: (§1) Expression constructs were prepared encoding human B7H4, human B7H3 (Uniprot accession no. Q5ZPR3-1; SEQ ID NO: 9), or a chimeric molecule containing the IgV domain of B7H3 and the IgC domain of B7H4 (B7H3-IgV/B7H4-IgC; SEQ ID NO: 11), or a chimeric molecule containing the IgV domain of B7H4 and the IgC domain of B7H3 (B7H4-IgV/B7H3-IgC; SEQ ID NO: 10). HEK cells were transiently transfected to express these constructs.
(§2) Cells (3×10⁴ cell/well) were incubated in polystyrene 96-well round-bottom plates (Greiner bio-one, cat. no. 650101) with serial dilutions of antibodies (range 0.0046 to 10 μg/mL in 3-fold dilution steps) in 50 μL PBS/0.1% BSA/0.02% azide (FACS buffer) at 4° C. for 30 min. After washing twice in FACS buffer, cells were incubated with secondary antibody at 4° C. for 30 min. As a secondary antibody, R-Phycoerythrin (PE)-conjugated goat-anti-human IgG F(ab′)₂ (1:500 in staining buffer; Jackson ImmunoResearch Laboratories, Inc., West Grove, PA, cat. no. 109-116-098) was used. Next, cells were washed twice in FACS buffer, re-suspended in 20 μL FACS buffer and analyzed on an iQue Screener (Intellicyt Corporation, USA).

[2] = target: T2, human B7H4, full length, on cells (human, UniProt Q7Z7D3 25-282); assay: flow cytometry on SK-BR3 tumor cells [panel SK-BR3 cells]
T2 construct: Uniprot Q7Z7D3; Used for transfected HEK cells and for the B7H4-expressing human tumor cell lines (endogenous B7H4); also called VTCN1
T2 sequence: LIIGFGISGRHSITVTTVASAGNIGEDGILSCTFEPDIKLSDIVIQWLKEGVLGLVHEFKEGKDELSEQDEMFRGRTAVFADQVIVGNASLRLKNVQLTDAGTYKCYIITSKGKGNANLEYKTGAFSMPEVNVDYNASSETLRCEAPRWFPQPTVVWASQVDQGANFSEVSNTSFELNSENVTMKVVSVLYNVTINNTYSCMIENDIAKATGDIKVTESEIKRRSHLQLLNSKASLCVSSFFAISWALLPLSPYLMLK
Protocol: (§3) Cells (3×10⁴ cells/well) were incubated in polystyrene 96-well round-bottom plates (Greiner bio-one, cat. no. 650180) with serial dilutions of antibodies (ranging from 0.000458 to 30 μg/mL in 4-fold dilution steps) in 100 μL PBS/0.1% BSA/0.02% azide (staining buffer) at 4° C. for 30 min. Experiments were performed in technical duplicate. After washing twice in staining buffer, cells were incubated in 50 μL secondary antibody at 4° C. for 30 min. As a secondary antibody, R-Phycoerythrin (PE)-conjugated goat-anti-human IgG F(ab′)₂ (1:500 in FACS buffer; Jackson ImmunoResearch Laboratories, Inc., West Grove, PA, cat. no. 109-116-098), was used. Cells were washed twice in staining buffer, re-suspended in 30 μL FACS buffer containing Topro-3 (1:10,000 dilution) and analyzed on an iQue Screener (Intellicyt Corporation, USA). Binding curves were analyzed using non-linear regression (sigmoidal dose-response with variable slope) using GraphPad Prism V7.02 software (GraphPad Software, San Diego, CA, USA).
(§4) Binding was analyzed by flow cytometry as described above.

[3] = target: T3, recombinant hIgG1 Fc-tagged cynomolgus monkey B7H4 (Creative BioMart, cat. no. VTCN1-1517R) (cynomolgus monkey, UniProt Q7Z7D3 25-259 (human entry)); assay: BLI (Octet HTX); Fc-tagged cynomolgus B7H4 coupled to AR2G sensor, bispecific antibody in solution (monovalent B7H4 binding); 1st experiment
T3 construct: Bought protein; also called cynomolgus monkey B7H4 extracellular domain
T3 sequence: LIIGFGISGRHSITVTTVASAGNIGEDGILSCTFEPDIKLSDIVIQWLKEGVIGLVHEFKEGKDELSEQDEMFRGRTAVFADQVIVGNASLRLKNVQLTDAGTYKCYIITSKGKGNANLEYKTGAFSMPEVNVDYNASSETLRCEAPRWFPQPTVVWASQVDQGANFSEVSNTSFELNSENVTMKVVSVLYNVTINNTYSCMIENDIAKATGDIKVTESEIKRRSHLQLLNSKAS
Protocol: (§5) In addition, the affinity of for cynomolgus monkey B7H4 was determined by BLI. […] Amine Reactive 2nd Generation (AR2G) biosensors (FortéBio, cat. no. 18-5092) were activated by reaction with 20 mM EDC (N-(3-Dimethylaminopropyl)-N′-ethylcarbodiimide hydrochloride) (FortéBio, cat. no. 18-1033) and 10 mM s-NHS (N-hydroxysulfosuccinimide sodium salt) (FortéBio, cat. no. 18-1067) for 300 s. The activated sensors were loaded with 10 μg/mL recombinant hIgG1 Fc-tagged cynomolgus monkey B7H4 (Creative BioMart, cat. no. VTCN1-1517R) in 10 mM Sodium Acetate pH 4.0 (FortéBio, cat. no. 18-1068) for 600 s and quenched with 1 M ethanolamine pH 8.5 (FortéBio, cat. no. 18-1071) for 300 s. […] A molecular mass of 150 kDa of the antibodies was used for calculations. For each antibody a reference sensor was used, which was incubated with Sample Diluent instead of antibody.
(§6) Data were acquired using Data Acquisition Software v9.0.0.49d (FortéBio) and analyzed with Data Analysis Software v9.0.0.12 (FortéBio). Data traces were corrected per antibody by subtraction of the reference sensor. The Y-axis was aligned to the last 10 s of the baseline, Interstep Correction alignment to dissociation and Savitzky-Golay filtering were applied. Data traces with a response<0.05 nm were excluded from analysis. The data was fitted with the 1:1 Global Full fit model using a window of interest for the association and dissociation times set at 100 s and 200 s respectively.

[4] = target: T2, human B7H4, full length, on cells; assay: cell-based or functional assay
[5] = target: T4, B7H4-IgV/B7H3-IgC; assay: flow cytometry, transiently transfected HEK cells, MFI as % of the control antibody of the panel [continued) III]
T4 construct: also called chimeric molecule with the IgV domain of B7H4 and the IgC domain of B7H3
T4 full-length chimeric protein on cells: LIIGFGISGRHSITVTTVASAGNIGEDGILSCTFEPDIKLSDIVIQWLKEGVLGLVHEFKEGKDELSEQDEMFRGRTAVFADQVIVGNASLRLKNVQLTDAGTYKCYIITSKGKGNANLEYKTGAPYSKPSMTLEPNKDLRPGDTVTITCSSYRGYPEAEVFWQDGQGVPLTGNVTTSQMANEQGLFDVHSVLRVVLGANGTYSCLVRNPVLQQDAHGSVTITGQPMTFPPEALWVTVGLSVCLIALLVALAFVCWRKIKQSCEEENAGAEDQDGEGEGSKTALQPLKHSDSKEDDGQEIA
Protocol: as §1, §2

[6] = target: T3, recombinant hIgG1 Fc-tagged cynomolgus …; assay: BLI (Octet HTX); Fc-tagged cynomolgus B7H4 coupled to AR2G sensor, bispecific antibody in solution (monovalent B7H4 binding); 2nd experiment (R^2 0.97, below the 0.98 threshold)
Protocol: as §5
as §6, with “The data was fitted with the 1:1 Global Full fit model using a window of interest for the association and dissociation times set at 100 s and 200 s respectively.” left out

[7] = target: T4, B7H4-IgV/B7H3-IgC; assay: flow cytometry, HEK cells transiently transfected with B7H4-IgV/B7H3-IgC, PE anti-human IgG F(ab')2 [panel B7H4-IgV/B7H3-IgC]
Protocol: After washing twice in FACS buffer, cells were incubated with secondary antibody at 4° C. for 30 min. […] Next, cells were washed twice in FACS buffer, re-suspended in 20 μL FACS buffer and analyzed on an iQue Screener (Intellicyt Corporation, USA).
Further experiments were conducted to study the B7H4 domain specificity of the B7H4 antibodies in more detail, by analysis of full dose-response curves.

[8] = target: T2, human B7H4, full length, on cells; assay: flow cytometry on MDA-MB-468 tumor cells [MDA-MB-468 right panel]
Protocol: as §3, §4

[9] = target: T3, recombinant hIgG1 Fc-tagged cynomolgus …; assay: BLI (Octet HTX); Fc-tagged cynomolgus B7H4 coupled to AR2G sensor, bispecific antibody in solution (monovalent B7H4 binding); 2nd experiment (R^2 0.97, below the 0.98 threshold); R^2 0.97, below the 0.98 quality threshold (footnote b)
Protocol: as §5
as §6, with “The data was fitted with the 1:1 Global Full fit model using a window of interest for the association and dissociation times set at 100 s and 200 s respectively.” left out

[10] = target: T2, human B7H4, full length, on cells; assay: binding to tumor cells, as CD3 bispecific (monovalent) and IgG1 (bivalent)

B1: bsIgG1-huCD3-FEALxB7H4-C1-N52S-FEAR (bispecific antibody)
heavy 1: not shown
light 1: not shown
heavy 2: QVQLQQWGAGLLKPSETLSLTCAVYGGSFSGYYWSWIRQPPGKGLEWIGEISHSGSTNYNPSLKSRVTISIDTSKNQFSLKLTSVTAADTAVFYCARGLFNWNFDSWGQGTLVTVSSASTKGPSVFPLAPSSKSTSGGTAALGCLVKDYFPEPVTVSWNSGALTSGVHTFPAVLQSSGLYSLSSVVTVPSSSLGTQTYICNVNHKPSNTKVDKRVEPKSCDKTHTCPPCPAPEFEGGPSVFLFPPKPKDTLMISRTPEVTCVVVAVSHEDPEVKFNWYVDGVEVHNAKTKPREEQYNSTYRVVSVLTVLHQDWLNGKEYKCKVSNKALPAPIEKTISKAKGQPREPQVYTLPPSREEMTKNQVSLTCLVKGFYPSDIAVEWESNGQPENNYKTTPPVLDSDGSFFLYSRLTVDKSRWQQGNVFSCSVMHEALHNHYTQKSLSLSPGK
light 2: DIQMTQSPSSLSASVGDRVTITCRASQGIRNDLGWYQQKPGKAPKRLIYGASSLQSGVPSRFSGSGSGTEFTLTISSLQPEDFATYYCLQHNSYPRTFGQGTTVEIKRTVAAPSVFIFPPSDEQLKSGTASVVCLLNNFYPREAKVQWKVDNALQSGNSQESVTEQDSKDSTYSLSSTLTLSKADYEKHKVYACEVTHQGLSSPVTKSFNRGEC
notes: also called bslgG1-huCD3-FEALxB7H4-C1-N52S-FEAR; CD3xB7H4
Q: Does B1 bind [1]?
A: no binding (tested: 10 µg/mL)

Q: And the “EC50 (read off the curve)” value [2]?
A: ~1 µg/mL

Q: What about the Kd [3] of the same binder?
A: 21 nM

Q: What about the koff [3] of the same binder?
A: 0.003 s⁻¹

Q: And the kon [3]?
A: 140000 M⁻¹ s⁻¹

Q: What about the “IC50 of T cell-mediated cytotoxicity, HCC1954 cells, highest of 4 donors” value [4] of the same binder?
A: 0.008 µg/mL

Q: And the “IC50 of T cell-mediated cytotoxicity, HCC1954 cells, lowest of 4 donors” value [4]?
A: 0.001 µg/mL

Q: What about the “IC50 of T cell-mediated cytotoxicity, MCF7 cells, highest of 4 donors” value [4] of the same binder?
A: 0.025 µg/mL

Q: And the “IC50 of T cell-mediated cytotoxicity, MCF7 cells, lowest of 4 donors” value [4]?
A: 0.012 µg/mL

Q: What about the “IC50 of T cell-mediated cytotoxicity, MDA-MB-468 cells, highest of 4 donors” value [4] of the same binder?
A: 0.004 µg/mL

Q: What about the “IC50 of T cell-mediated cytotoxicity, MDA-MB-468 cells, lowest of 4 donors” value [4] of the same binder?
A: 0.001 µg/mL

Q: What about the “IC50 of T cell-mediated cytotoxicity, OVCAR3 cells, highest of 4 donors” value [4] of the same binder?
A: 0.012 µg/mL

Q: What about the “IC50 of T cell-mediated cytotoxicity, OVCAR3 cells, lowest of 4 donors” value [4] of the same binder?
A: 0.003 µg/mL

Q: What about the “IC50 of T cell-mediated cytotoxicity, SK-BR3 cells, highest of 4 donors” value [4] of the same binder?
A: 0.016 µg/mL

Q: And the “IC50 of T cell-mediated cytotoxicity, SK-BR3 cells, lowest of 4 donors” value [4]?
A: 0.002 µg/mL

Q: Does B1 bind [5]?
A: no binding (tested: 10 µg/mL)

B2: bsIgG1-huCD3-H101G-FEALxB7H4-C5-FEAR (bispecific antibody)
heavy 1: not shown
light 1: not shown
heavy 2: QLQLQESGPGLVKPSETLSLTCTVSGGSIKSGSYYWGWIRQPPGKGLEWIGNIYYSGSTYYNPSLRSRVTISVDTSKNQFSLKLSSVTAADTAVYYCAREGSYPNQFDPWGQGTLVTVSSASTKGPSVFPLAPSSKSTSGGTAALGCLVKDYFPEPVTVSWNSGALTSGVHTFPAVLQSSGLYSLSSVVTVPSSSLGTQTYICNVNHKPSNTKVDKRVEPKSCDKTHTCPPCPAPEFEGGPSVFLFPPKPKDTLMISRTPEVTCVVVAVSHEDPEVKFNWYVDGVEVHNAKTKPREEQYNSTYRVVSVLTVLHQDWLNGKEYKCKVSNKALPAPIEKTISKAKGQPREPQVYTLPPSREEMTKNQVSLTCLVKGFYPSDIAVEWESNGQPENNYKTTPPVLDSDGSFFLYSRLTVDKSRWQQGNVFSCSVMHEALHNHYTQKSLSLSPGK
light 2: not shown
notes: also called bslgG1-huCD3-H101G-FEALxB7H4-C5-FEAR
Q: For B2, which koff [6] is on record?
A: 0.0025 s⁻¹

Q: And the kon [6]?
A: 420000 M⁻¹ s⁻¹

Q: And the “EC50 (read off the curve)” value [7]?
A: ~1 µg/mL

Q: What about the “EC50 (read off the curve)” value [8] of the same binder?
A: ~0.6 µg/mL

Q: What about the Kd [9] of the same binder?
A: 6 nM

B3: antibody B7H4-C1 (antibody, V domains shown)
VH: QVQLQQWGAGLLKPSETLSLTCAVYGGSFSGYYWSWIRQPPGKGLEWIGEINHSGSTNYNPSLKSRVTISIDTSKNQFSLKLTSVTAADTAVFYCARGLFNWNFDSWGQGTLVTVSS
VL: DIQMTQSPSSLSASVGDRVTITCRASQGIRNDLGWYQQKPGKAPKRLIYGASSLQSGVPSRFSGSGSGTEFTLTISSLQPEDFATYYCLQHNSYPRTFGQGTTVEIKR
notes: Parent of B7H4-C1-N52S
Q: Does B3 bind [10]?
A: binds
